Where a chain is given by its changes, count along the chain named. In names and notes the source's numbering stands.
B1: Microfibril-associated glycoprotein 4 (natural protein, human, UniProt P55083 22-255, looked up)
chain: VSGIRGDALERFCLQQPLDCDDIYAQGYQSDGVYLIYPSGPSVPVPVFCDMTTEGGKWTVFQKRFNGSVSFFRGWNDYKLGFGRADGEYWLGLQNMHLLTLKQKYELRVDLEDFENNTAYAKYADFSISPNAVSAEEDGYTLFVAGFEDGGAGDSLSYHSGQKFSTFDRDQDLFVQNCAALSSGAFWFRSCHFANLNGFYLGGSHLSYANGINWAQWKGFYYSLKRTEMKIRRA
modifications: intermolecular disulphide bond between C34 of two monomers; N-glycosylated at N87 and N137 (cryo-EM density)
notes: signal peptide in the construct; Q21 is the first residue after signal peptide cleavage; Octamer (8 copies) in TBS with 2 mM Ca2+; tetramer (4 copies) after Ca2+ depletion with EDTA or EGTA; also called MFAP4; source: HEK293 EBNA cells, transfected (pCEP4-MFAP4), conditioned medium, purified by nickel chelating chromatography
B2: MFAP4_(C34S) (natural protein, human, UniProt P55083 22-255, looked up)
chain: B1 chain with C13S
notes: signal peptide in the construct; human MFAP4, M1KAL...IRRA255 with C34S; Q21 is the first residue after signal peptide cleavage; Octamer in TBS with Ca2+; tetramer after Ca2+ depletion; No intermolecular disulphide bond; also called MFAP_(C34S); source: HEK293 EBNA cells, transfected (pCEP4-MFAP4_(C34S)), conditioned medium, purified by nickel chelating chromatography
B3: fibrillin-1 centre region fragment rF1M (domain or fragment)
chain: not shown

Assays:
[1] = target: the molecule itself; assay: dynamic light scattering; TBS/Ca2+ (2 mM); mass from hydrodynamic radius by calibration with standard proteins, globular model; monomers to octamer
[2] = target: the molecule itself; assay: cryo-EM structure; MFAP4 after Ca2+ depletion with 5 mM EDTA; single particle analysis, C2 symmetry; tetramer
[3] = target: T1, latent transforming growth factor beta binding protein-4, long isoform (UniProt Q8N2S1-1 28-1624); assay: SPR; Ca2+ form (octamer): MFAP4 or MFAP4_(C34S) amine-coupled on CM5 (Biacore X), elastogenic proteins as analytes 5-100 µg/mL in TBS/Ca2+ (2 mM CaCl2); 1:1 Langmuir fit, KD is the average over five concentrations; conditions: both partners purified
T1 construct: LTBP4, long isoform (LTBP4L); also called LTBP4L
T1 sequence (Q8N2S1 28-1624): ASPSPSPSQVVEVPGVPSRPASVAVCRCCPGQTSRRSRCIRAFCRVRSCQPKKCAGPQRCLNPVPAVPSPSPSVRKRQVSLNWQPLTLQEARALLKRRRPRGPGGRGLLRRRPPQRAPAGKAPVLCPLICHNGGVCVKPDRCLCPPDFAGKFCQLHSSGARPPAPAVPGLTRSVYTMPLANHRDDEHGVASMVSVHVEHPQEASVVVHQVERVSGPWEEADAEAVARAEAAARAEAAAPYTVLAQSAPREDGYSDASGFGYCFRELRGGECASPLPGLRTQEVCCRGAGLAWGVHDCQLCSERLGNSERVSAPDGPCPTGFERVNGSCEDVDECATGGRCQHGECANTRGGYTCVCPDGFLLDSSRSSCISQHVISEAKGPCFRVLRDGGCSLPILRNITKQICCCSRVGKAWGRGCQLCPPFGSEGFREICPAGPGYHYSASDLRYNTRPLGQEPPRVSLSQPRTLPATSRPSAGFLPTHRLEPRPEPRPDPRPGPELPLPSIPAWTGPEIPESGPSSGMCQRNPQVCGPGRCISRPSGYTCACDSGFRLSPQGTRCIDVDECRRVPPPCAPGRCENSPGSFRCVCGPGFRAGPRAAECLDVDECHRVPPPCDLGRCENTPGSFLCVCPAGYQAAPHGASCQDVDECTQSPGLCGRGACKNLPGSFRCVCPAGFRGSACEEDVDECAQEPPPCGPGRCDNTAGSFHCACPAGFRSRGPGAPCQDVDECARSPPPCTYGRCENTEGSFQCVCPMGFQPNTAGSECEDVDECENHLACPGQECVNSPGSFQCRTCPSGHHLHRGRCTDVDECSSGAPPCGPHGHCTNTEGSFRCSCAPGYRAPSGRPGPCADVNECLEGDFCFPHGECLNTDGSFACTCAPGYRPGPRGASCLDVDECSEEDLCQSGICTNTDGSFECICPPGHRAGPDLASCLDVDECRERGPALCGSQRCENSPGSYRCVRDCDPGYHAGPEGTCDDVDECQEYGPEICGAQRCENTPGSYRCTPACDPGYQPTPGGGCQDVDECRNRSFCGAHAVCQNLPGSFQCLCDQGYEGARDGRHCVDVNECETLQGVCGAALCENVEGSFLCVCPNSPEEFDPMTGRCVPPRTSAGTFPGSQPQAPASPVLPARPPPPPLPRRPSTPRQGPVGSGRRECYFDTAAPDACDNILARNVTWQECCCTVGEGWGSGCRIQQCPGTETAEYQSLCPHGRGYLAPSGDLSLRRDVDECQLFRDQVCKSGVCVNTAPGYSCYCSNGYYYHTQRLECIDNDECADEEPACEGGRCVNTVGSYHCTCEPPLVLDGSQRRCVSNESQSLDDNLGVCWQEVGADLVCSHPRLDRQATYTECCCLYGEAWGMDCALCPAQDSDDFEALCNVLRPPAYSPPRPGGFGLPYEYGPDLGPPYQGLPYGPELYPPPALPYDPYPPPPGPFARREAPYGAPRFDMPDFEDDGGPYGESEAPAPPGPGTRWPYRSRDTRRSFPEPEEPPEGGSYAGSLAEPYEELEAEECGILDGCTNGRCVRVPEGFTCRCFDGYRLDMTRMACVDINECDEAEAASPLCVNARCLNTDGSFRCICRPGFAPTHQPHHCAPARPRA

fibulin-4 = target: T2, fibulin-4 (UniProt O95967 24-443); assay: as above; conditions: both partners purified
T2 construct: fibulin-4, recombinant
T2 sequence (looked up): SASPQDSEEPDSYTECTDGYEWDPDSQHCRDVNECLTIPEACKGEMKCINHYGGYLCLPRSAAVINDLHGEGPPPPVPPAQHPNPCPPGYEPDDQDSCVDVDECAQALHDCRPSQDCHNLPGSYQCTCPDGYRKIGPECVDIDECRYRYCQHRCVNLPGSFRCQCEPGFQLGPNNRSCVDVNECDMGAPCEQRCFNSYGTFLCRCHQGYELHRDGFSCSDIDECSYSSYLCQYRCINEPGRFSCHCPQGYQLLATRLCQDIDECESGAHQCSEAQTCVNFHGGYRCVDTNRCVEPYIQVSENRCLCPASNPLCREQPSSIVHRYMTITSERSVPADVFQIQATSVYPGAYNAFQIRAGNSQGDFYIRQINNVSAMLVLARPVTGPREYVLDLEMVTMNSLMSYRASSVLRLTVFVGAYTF

[4] = target: T3, recombinant human tropoelastin (human, UniProt P15502 27-786); assay: as above; conditions: both partners purified
T3 construct: human tropoelastin, recombinant; source: bought: Elastagen
T3 sequence (looked up): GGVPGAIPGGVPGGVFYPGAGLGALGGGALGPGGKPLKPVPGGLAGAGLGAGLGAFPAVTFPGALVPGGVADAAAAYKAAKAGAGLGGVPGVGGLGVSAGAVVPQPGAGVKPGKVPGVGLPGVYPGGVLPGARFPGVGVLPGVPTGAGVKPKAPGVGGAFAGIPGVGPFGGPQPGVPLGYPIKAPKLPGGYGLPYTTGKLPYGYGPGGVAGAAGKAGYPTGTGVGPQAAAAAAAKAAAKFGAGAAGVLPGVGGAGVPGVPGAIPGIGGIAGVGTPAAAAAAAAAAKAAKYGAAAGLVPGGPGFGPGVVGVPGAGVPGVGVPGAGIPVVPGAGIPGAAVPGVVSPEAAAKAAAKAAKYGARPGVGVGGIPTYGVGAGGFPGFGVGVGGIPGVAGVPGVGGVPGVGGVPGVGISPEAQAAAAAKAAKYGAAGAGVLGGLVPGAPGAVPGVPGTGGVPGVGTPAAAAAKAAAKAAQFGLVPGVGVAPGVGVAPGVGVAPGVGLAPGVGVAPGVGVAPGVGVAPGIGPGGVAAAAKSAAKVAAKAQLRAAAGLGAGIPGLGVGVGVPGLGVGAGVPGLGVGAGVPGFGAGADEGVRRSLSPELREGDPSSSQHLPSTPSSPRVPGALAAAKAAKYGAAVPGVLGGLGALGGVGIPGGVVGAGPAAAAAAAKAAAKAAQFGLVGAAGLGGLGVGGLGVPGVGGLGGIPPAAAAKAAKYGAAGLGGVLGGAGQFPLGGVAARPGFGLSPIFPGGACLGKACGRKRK

fibulin-5 = target: T4, fibulin-5 (UniProt Q9UBX5 24-448); assay: as above; conditions: both partners purified
T4 construct: fibulin-5, recombinant
T4 sequence (looked up): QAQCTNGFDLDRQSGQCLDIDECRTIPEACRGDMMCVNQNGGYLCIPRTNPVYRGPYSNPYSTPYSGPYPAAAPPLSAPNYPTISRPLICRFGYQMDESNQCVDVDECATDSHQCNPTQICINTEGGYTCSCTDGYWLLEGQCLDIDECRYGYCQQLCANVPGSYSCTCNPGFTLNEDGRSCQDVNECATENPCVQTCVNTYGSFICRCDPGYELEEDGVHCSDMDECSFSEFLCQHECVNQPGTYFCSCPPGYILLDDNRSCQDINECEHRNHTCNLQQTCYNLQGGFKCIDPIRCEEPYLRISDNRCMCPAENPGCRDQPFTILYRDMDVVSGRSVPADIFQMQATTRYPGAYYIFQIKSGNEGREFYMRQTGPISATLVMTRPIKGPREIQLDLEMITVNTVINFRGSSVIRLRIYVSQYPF

[5] = target: the molecule itself; assay: SDS-PAGE; non-reducing, 10% gel, Coomassie stain; disulphide-linked dimer
[6] = target: the molecule itself; assay: SPR; self-interaction of octamers; Biacore X, CM5 chip, MFAP4 or MFAP4_(C34S) amine-coupled (300-500 RU), same protein as analyte 5-100 µg/mL in TBS/Ca2+ (50 mM Tris-HCl pH 7.4, 150 mM NaCl, 2 mM CaCl2); 1:1 Langmuir fit, KD is the average over five concentrations
[7] = target: the molecule itself; assay: atomic force microscopy; MFAP4 or MFAP4_(C34S) Ca2+-depleted (5 mM EDTA); particle heights on mica, tapping mode in air
[8] = target: B1; assay: SPR; Ca2+ form (octamer): MFAP4 or MFAP4_(C34S) amine-coupled on CM5 (Biacore X), elastogenic proteins as analytes 5-100 µg/mL in TBS/Ca2+ (2 mM CaCl2); 1:1 Langmuir fit, KD is the average over five concentrations; conditions: both partners purified

Binder	stoichiometry N [1]	stoichiometry N [2]	Kd [3] [µM]	Kd (fibulin-4) [µM]	Kd [4] [µM]	Kd (fibulin-5) [µM]	stoichiometry N [5]	Kd [6] [µM]	stoichiometry N [7]	Kd [8] [µM]
B1	8	4	0.018	0.11	0.045	0.357	2	0.0062	–	–
B2	8	–	–	–	–	–	–	0.0058	4	–
B3	–	–	–	–	–	–	–	–	–	0.0012

Reference: PMC11091212, “Microfibril-associated glycoprotein 4 forms octamers that mediate interactions with elastogenic proteins and cells” (Nature Communications, 2024)
